Test results taken from article doi:10.1101/2024.12.17.628836.
“And” between values parts separate entries of the source, which are not always exact repeats. Equal values may be shown once.

Biological target: standard human 20S proteasome, immunopurified from HEK293-EBNA cells (human)
Assay: mass photometry

“recombinant human PA200 (proteasome activator 200) (from UniProt Q14997 1-1843) (natural protein)” was tested, and the percent of total 20S bound at a PA200:20S molar ratio of 8 was greater than 60% and the stoichiometry N (PA200 per 20S) was 1 and 2.
